{"source": "IntAct's records for PubMed 29892012", "parents": {"B1": {"name": "Angio-associated migratory cell protein (Homo sapiens), Q13685 (parent)", "chain": "MESESESGAAADTPPLETLSFHGDEEIIEVVELDPGPPDPDDLAQEMEDVDFEEEEEEEGNEEGWVLEPQEGVVGSMEGPDDSEVTFALHSASVFCVSLDPKTNTLAVTGGEDDKAFVWRLSDGELLFECAGHKDSVTCAGFSHDSTLVATGDMSGLLKVWQVDTKEEVWSFEAGDLEWMEWHPRAPVLLAGTADGNTWMWKVPNGDCKTFQGPNCPATCGRVLPDGKRAVVGYEDGTIRIWDLKQGSPIHVLKGTEGHQGPLTCVAANQDGSLILTGSVDCQAKLVSATTGKVVGVFRPETVASQPSLGEGEESESNSVESLGFCSVMPLAAVGYLDGTLAIYDLATQTLRHQCQHQSGIVQLLWEAGTAVVYTCSLDGIVRLWDARTGRLLTDYRGHTAEILDFALSKDASLVVTTSGDHKAKVFCVQRPDR", "partner": "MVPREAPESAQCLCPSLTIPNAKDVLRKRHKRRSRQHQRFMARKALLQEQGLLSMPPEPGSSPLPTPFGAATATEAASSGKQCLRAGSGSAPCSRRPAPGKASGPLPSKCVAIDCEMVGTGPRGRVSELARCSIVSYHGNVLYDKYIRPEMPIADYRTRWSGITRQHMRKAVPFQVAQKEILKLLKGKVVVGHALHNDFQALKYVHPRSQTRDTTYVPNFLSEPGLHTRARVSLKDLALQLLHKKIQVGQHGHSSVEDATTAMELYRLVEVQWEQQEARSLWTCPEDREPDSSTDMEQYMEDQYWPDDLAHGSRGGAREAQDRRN"}, "B2": {"name": "Late cornified envelope protein 1B (Homo sapiens), Q5T7P3 (parent)", "chain": "MSCQQNQQQCQPPPKCIPKCPPKCLTPRCPPKCPPKCPPVSSCCSVSSGGCCGSSSGGSCGSSSGGCCSSGGGGCCLSHHRRRRSHCHRPQSSGCCSQPSGGSSCCGGGSGQHSGGCC", "partner": "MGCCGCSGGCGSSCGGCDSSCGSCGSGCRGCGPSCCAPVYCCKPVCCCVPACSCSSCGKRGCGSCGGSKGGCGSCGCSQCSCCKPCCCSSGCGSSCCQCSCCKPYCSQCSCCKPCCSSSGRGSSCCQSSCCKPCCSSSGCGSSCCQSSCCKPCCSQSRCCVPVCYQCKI"}, "B3": {"name": "Angio-associated migratory cell protein (Homo sapiens), Q13685 (parent)", "chain": "B1 chain", "partner": "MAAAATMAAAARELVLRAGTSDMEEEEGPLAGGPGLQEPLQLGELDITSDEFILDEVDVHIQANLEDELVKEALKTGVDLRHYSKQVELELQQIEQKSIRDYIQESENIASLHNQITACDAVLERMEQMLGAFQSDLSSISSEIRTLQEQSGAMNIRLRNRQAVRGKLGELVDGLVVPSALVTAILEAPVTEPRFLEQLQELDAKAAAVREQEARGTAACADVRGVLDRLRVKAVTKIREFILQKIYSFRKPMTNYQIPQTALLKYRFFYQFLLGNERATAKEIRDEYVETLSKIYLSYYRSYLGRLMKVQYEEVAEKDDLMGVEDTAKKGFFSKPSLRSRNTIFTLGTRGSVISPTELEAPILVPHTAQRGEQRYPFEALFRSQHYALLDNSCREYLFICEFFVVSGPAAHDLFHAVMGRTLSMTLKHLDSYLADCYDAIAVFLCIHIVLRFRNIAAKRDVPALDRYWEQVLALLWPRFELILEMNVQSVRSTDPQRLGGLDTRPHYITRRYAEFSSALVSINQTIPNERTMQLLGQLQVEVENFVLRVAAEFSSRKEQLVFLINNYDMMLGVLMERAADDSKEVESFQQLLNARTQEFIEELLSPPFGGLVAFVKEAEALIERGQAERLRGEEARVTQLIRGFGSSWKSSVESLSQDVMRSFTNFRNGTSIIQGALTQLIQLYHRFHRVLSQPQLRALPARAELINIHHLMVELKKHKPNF"}, "B4": {"name": "CGG triplet repeat-binding protein 1 (Homo sapiens), Q9UFW8 (parent)", "chain": "MERFVVTAPPARNRSKTALYVTPLDRVTEFGGELHEDGGKLFCTSCNVVLNHVRKSAISDHLKSKTHTKRKAEFEEQNVRKKQRPLTASLQCNSTAQTEKVSVIQDFVKMCLEANIPLEKADHPAVRAFLSRHVKNGGSIPKSDQLRRAYLPDGYENENQLLNSQDC", "partner": "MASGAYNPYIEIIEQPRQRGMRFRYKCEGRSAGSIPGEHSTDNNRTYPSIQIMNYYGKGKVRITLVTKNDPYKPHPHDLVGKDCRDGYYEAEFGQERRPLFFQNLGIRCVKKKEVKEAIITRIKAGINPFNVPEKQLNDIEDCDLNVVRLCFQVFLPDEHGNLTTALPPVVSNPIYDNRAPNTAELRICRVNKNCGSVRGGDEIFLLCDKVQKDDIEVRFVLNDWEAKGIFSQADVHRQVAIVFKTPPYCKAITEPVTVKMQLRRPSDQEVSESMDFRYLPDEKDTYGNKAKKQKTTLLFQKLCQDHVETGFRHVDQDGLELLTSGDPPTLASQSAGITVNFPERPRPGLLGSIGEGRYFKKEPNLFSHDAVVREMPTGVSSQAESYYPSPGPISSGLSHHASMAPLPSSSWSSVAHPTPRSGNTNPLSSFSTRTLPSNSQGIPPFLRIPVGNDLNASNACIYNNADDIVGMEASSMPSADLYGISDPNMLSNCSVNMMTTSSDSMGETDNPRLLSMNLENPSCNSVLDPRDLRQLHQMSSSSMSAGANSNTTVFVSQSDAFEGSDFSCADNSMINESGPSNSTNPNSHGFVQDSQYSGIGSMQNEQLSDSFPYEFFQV"}}, "data": [{"variants_of": "B1", "details": "with aen_human AEN", "values": [{"variant": "I343F", "effect of a mutation on the interaction": "with no effect"}]}, {"variants_of": "B2", "details": "with kra59_human KRTAP5-9, P26371", "values": [{"variant": "C16Y", "effect of a mutation on the interaction": "disrupting interaction strength"}]}, {"variants_of": "B3", "details": "with vps52_human VPS52, Q8N1B4", "values": [{"variant": "I343F", "effect of a mutation on the interaction": "with no effect"}]}, {"variants_of": "B4", "details": "with rel_human REL", "values": [{"variant": "R54C", "effect of a mutation on the interaction": "disrupting interaction strength"}]}]}
